This is an account of results in US20030027228A1 (MYRIAD GENETICS, published 2003).

* marks the point of attachment. Biotin = O=C1N[C@H]2[C@H](CS[C@H]2CCCCC(=O)*)N1

First the molecules themselves.
B1: GST fusion of MMSC1 PDZ domain 9 (amino acids 1532-1613) (other)
chain: FPVDLQKKAGRGLGLSIVGKRNGSGVFISDIVKGGAADLDGRLIQGDQILSVNGEDMRNASQETVATILKCAQGLVQLEIGR
notes: Expressed in E. coli, purified on glutathione-agarose, adsorbed to the ELISA plate; GST is placed N-terminal as in pGEX vectors; also called MMSc1 PDZ 9; PDZ domain number 9; not shown: glutathione S-transferase (GST) encoded by pGEX vectors (Pharmacia)
B2: GST fusion of MMSC1 PDZ domain 8 (amino acids 1436-1518) (other)
chain: MIIEISKGRSGLGLSIVGGKDTPLNAIVIHEVYEEGAAARDGRLWAGDQILEVNGVDLRNSSHEEAITALRQTPQKVRLVVYR
notes: Expressed in E. coli, purified on glutathione-agarose, adsorbed to the ELISA plate; GST is placed N-terminal as in pGEX vectors; also called MMSc1 PDZ 8; PDZ domain number 8; not shown: glutathione S-transferase (GST) encoded by pGEX vectors (Pharmacia)
B3: GST fusion of MMSC1 PDZ domain 6 (amino acids 1067-1158) (other)
chain: RIVEIFREPNVSLGISIVGGQTVIKRLKNGEELKGIFIKQVLEDSPAGKTNALKTGDKILEVSGVDLQNASHSEAVEAIKNAGNPVVFIVQS
notes: Expressed in E. coli, purified on glutathione-agarose, adsorbed to the ELISA plate; GST is placed N-terminal as in pGEX vectors; also called MMSc1 PDZ 6; PDZ domain number 6; not shown: glutathione S-transferase (GST) encoded by pGEX vectors (Pharmacia)
B4: GST fusion of MMSC1 PDZ domain 3 (amino acids 364-451) (other)
chain: YNVELVRKDGQSLGIRIVGYVGTSHTGEASGIYVKSVIPGSAAYHNGHIQVNDKIVAVDGVNIQGFANHDVVEVLRNAGQVVHLTLVR
notes: Expressed in E. coli, purified on glutathione-agarose, adsorbed to the ELISA plate; GST is placed N-terminal as in pGEX vectors; also called MMSc1 PDZ 3; PDZ domain number 3; not shown: glutathione S-transferase (GST) encoded by pGEX vectors (Pharmacia)
B5: GST fusion of MMSC1 PDZ domain 7 (amino acids 1238-1320) (other)
chain: HIIELEKDKNGLGLSLAGNKDRSRMSIFVVGINPEGPAAADGRMHIGDELLEINNQILYGRSHQNASAIIKTAPSKVKLVFIR
notes: Expressed in E. coli, purified on glutathione-agarose, adsorbed to the ELISA plate; GST is placed N-terminal as in pGEX vectors; also called MMSc1 PDZ 7; PDZ domain number 7; not shown: glutathione S-transferase (GST) encoded by pGEX vectors (Pharmacia)
B6: GST fusion of MMSC1 PDZ domain 5 (amino acids 685-771) (other)
chain: KIVELVKDCKGLGFSILDYQDPLDPTRSVIVIRSLVADGVAERSGGLLPGDRLVSVNEYCLDNTSLAEAVEILKAVPPGLVHLGICK
notes: Expressed in E. coli, purified on glutathione-agarose, adsorbed to the ELISA plate; GST is placed N-terminal as in pGEX vectors; also called MMSc1 PDZ 5; PDZ domain number 5; not shown: glutathione S-transferase (GST) encoded by pGEX vectors (Pharmacia)

One assay deals with T1, MMAC1.388-403 biotin-ENEPFDEDQHTQITKV-COOH (SMILES …).
T1 construct: also called the 16 C-terminal amino acids of MMAC1
T1 peptide: Biotin-ENEPFDEDQHTQITKV-OH
The assay is described as follows: peptide binding ELISA: GST-PDZ on plate, biotin-peptide/streptavidin-alkaline phosphatase complex, colorimetric. An excerpt: (§1) cDNAs encoding each of the MMSC1 PDZ domains (amino acid residues identified in Table 1), and any desired control proteins, were generated by PCR and subcloned as glutathione S-transferase (GST) fusions in pGEX vectors (Pharmacia). After sequencing to confirm expression construct integrity, the resulting clones were expressed in E. coli and the desired fusion proteins isolated with glutathione-agarose and recovered with glutathione elution. These fusion proteins or control proteins were then adsorbed to different wells of a 96-well ELISA plate and remaining sites blocked with BSA. Synthetic commercially synthesized peptides encoding the desired PDZ-binding domain (i.e., the 16 C-terminal amino acids of MMAC1, or the C-terminal peptide sequences of interacting proteins identified by the approach of Example 2, or the C-terminal peptide sequences identified by the approach of Example 3), or a control peptide, and biotinylated at the amino-terminus, were pre-bound to streptavidin-alkaline phosphatase in a 4:1 molar ratio. The biotinylated peptide streptavidin-alkaline phosphatase complexes were then blocked with free biotin. These pre-bound peptide streptavidin-alkaline phosphatase complexes were then incubated with the immobilized PDZ domains in wash buffer containing PBS, BSA and triton-X100. Unbound material was removed with repeated washes. Bound peptide/streptavidin-alkaline phosphatase complex was then quantitated by a colorimetric phosphatase assay read on a 96-well plate reader.
For orientation: An ELISA detects its analyte on a solid surface through an enzyme-linked reagent.
On to B1, for which the A405 came to 0.1 A405.
Same read-out and setting: the value for B2 was 0.3 A405.
Molecule B3 displayed an A405 of 0.23 A405.
Still for that read-out and setting: then B4, with 0.01 A405.
The same measure, in the same setting: then B5, with 1.25 A405; and B6, with 0 A405.

The target of a further assay is T2, AF6 PDZ binding peptide biotin-SGDDGDDPFLQYEFYV-COOH (SMILES …).
T2 peptide: Biotin-SGDDGDDPFLQYEFYV-OH
The description is as above.
Text: as §1
With B1, the A405 was found to be 2.41 A405.
On the same count and under the same terms, then B2, with 0.29 A405; and B3, with 1.46 A405.
B4 displayed an A405 of 2.24 A405.
B5 had an A405 of 1.05 A405.
For B6, the A405 stood at 0.02 A405.

Another assay concerns the target T3, SH3 binding peptide biotin-SGSGILAPPVPPRNTR-COOH (SMILES …).
T3 peptide: Biotin-SGSGILAPPVPPRNTR-OH
The description is as above.
Text: as §1
For the molecule B1, the A405 was 0.02 A405.
Still for that read-out and setting: then B2, with 0 A405; and B3, with 0 A405; and B4, with 0.01 A405.
Still for that read-out and setting: then B5, with 0.01 A405; and B6, with 0 A405.
